Laboratory results as given in publication PMC7335806, “Molecular mechanisms that regulate export of the planar cell-polarity protein Frizzled-6 out of the endoplasmic reticulum” (The Journal of Biological Chemistry, 2020).

What was measured:
Test in all cases: pull-down; peptides (5 nmol) covalently coupled to thiopyridone-Sepharose 6B beads via the C-terminal cysteine; 2 μg purified His-tagged Sar1A preincubated with 500 μM GTPγS in HK buffer (100 mM KCl, 20 mM Hepes pH 7.2); 1 h at 4 °C; immunoblotting
Conditions in all cases: both partners purified
[1] = target: T1, His-tagged human Sar1A^(Δ2-17, H79G) (human, UniProt Q9NR31 10-198, Δ2-17 | H79G)
T1 construct: Sar1A, human, H79G, depleted of its N-terminal amphipathic helix (Δ2-17); preincubated with GTPγS; also called Sar1A^(Δ2-17, H79G)-His; Sar1A (Δ2-17, H79G)-His; source: recombinant (cloned into pET-28a), purified; not shown: His, C-terminal, kept
T1 sequence (Q9NR31 18-198 H79G): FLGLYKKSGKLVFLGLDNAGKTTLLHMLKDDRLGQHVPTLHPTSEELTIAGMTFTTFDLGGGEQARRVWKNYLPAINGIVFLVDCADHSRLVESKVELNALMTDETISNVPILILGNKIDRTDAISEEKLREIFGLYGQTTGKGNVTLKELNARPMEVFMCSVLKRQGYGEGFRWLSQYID

[2] = target: T2, Sar1A (Δ2-17, E62A, E63A, H79G) (human, UniProt Q9NR31 10-198, Δ2-17 | E62A | E63A | H79G)
T2 construct: Sar1A, human, Δ2-17, H79G with E62A and E63A; preincubated with GTPγS; also called Sar1A (Δ2-17, H79G, E62A, E63A)-His; source: recombinant, purified; not shown: His, C-terminal, kept
T2 sequence (Q9NR31 18-198 E62A/E63A/H79G): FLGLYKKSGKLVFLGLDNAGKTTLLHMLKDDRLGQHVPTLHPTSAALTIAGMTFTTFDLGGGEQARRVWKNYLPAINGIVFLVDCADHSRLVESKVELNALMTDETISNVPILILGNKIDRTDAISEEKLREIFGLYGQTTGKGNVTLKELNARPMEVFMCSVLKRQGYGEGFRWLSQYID

[3] = target: T3, Sar1A (Δ2-17, H79G, D198A) (human, UniProt Q9NR31 10-198, Δ2-17 | H79G | D198A)
T3 construct: Sar1A, human, Δ2-17, H79G with D198A; preincubated with GTPγS; also called Sar1A bearing the D198A mutation; source: recombinant, purified
T3 sequence (Q9NR31 18-198 H79G/D198A): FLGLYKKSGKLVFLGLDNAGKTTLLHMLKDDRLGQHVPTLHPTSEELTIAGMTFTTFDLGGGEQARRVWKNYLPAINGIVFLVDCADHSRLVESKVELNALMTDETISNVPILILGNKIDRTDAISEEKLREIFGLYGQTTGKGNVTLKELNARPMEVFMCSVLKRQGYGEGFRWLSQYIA

binding result [1]: binds | binding result [2]: binds | binding result [3]: binds
B1: RRFR peptides (first intracellular loop of Fzd6) (peptide)
peptide: VRRFRYPERPC
notes: first intracellular loop of Fzd6 with the polybasic motif RRFR; added C-terminal cysteine residue, used to couple the peptide to thiopyridone-Sepharose 6B beads; Covalently linked to thiopyridone-Sepharose 6B through the added C-terminal cysteine; source: synthetic peptide, bought: GenScript
